B1: AFP(243-261)[Ac-243; Asn(G0F)251]amid (peptide)
peptide: Ac-LSQKFTKVN(G0F)FTEIQKLVLD-NH2
notes: also called BMO 35.000315
B2: AFP(248-256)Ac-248]amid (peptide)
peptide: Ac-TKVNFTEIQ-NH2
notes: also called BMO 35.000373
B3: mAb<AFP-L3>rRb-19B12-IgG (antibody, V domains shown)
VH: QSVEESGGRLVAPGTPLTLTCTVSGIDLSTYGMGWVRQAPGKGLEWIGIIGDNGSTYYANWAKGRFTISKTSTTVDLKMTSLTTEDTATYFCARDRDPSSSGYYFKMWGPGTLVTVSL
VL: ALVMTQTPSSVSAAVGGTVTINCQASQSISSYLAWYQQKPGQPPKLLIFGASNLESGVPSRFKGSGSGTEFTLTISDLECDDAATYYCQTAFYIFSSDNAFGGGTEVVVK
notes: Recombinant rabbit IgG (B-cell supernatant in the Hit-ELISA, expressed in HEK293 afterwards); also called antibody 19B12; clone 19B12
B4: mAb<AFP-L3>rRb-3C5-IgG (antibody, V domains shown)
VH: QSVEESGGRLVAPGTPLTLTCTVSGIDLSTYGMGWVRQAPGKGLEYIGIIDSGSTYYANWAKGRFTISKTSTTVDLKMTSLTTEDTATYFCARDRDPSSSGYYFKMWGPGTLVTVSL
VL: B3 VL with S30G, K45R, F49Y
notes: Recombinant rabbit IgG; also called antibody 3C5; clone 3C5

Where a chain is given by its changes, count along the chain named. Names may count otherwise. The star is where a group is joined. G0F = fucosylated biantennary N-glycan, CC(=O)N[C@@H]1[C@@H](O)[C@H](O[C@@H]2O[C@H](CO)[C@@H](O[C@@H]3O[C@H](CO[C@H]4O[C@H](CO)[C@@H](O)[C@H](O)[C@@H]4O[C@@H]4O[C@H](CO)[C@@H](O)[C@H](O)[C@H]4NC(C)=O)[C@@H](O)[C@H](O[C@H]4O[C@H](CO)[C@@H](O)[C@H](O)[C@@H]4O[C@@H]4O[C@H](CO)[C@@H](O)[C@H](O)[C@H]4NC(C)=O)[C@@H]3O)[C@H](O)[C@H]2NC(C)=O)[C@@H](CO[C@@H]2O[C@@H](C)[C@@H](O)[C@@H](O)[C@@H]2O)O[C@H]1*

Assay [1] has as its target B3. Put plainly: SPR affinity in solution (Biacore, CAP chip): 10 nM antibody equilibrated with the non-biotinylated peptide at varied concentration; free antibody measured by its binding to captured AFP(243-261)-G0F-Bi; n=2. The protocol: (§1) The dissociation equilibrium constant K) was determined via the Affinity in Solution method (AiS).
(§2) With increasing peptide concentration as a competitor, the ‘free’ antibody in solution decreases. The determined free antibody concentrations for the competition experiment were plotted versus the peptide competitor concentration. The regeneration was performed using a Guanidinium/NaOH solution, as supplied by Cytiva. Two independent series were analyzed for each interaction. The Affinity in Solution model from Biacore Evaluation software was used to evaluate the data.
Background: In SPR one partner is held on a chip, and binding of the other changes the refractive index at the surface.

The target of assay [2] is B4. Nature of the assay: SPR affinity in solution (Biacore, CAP chip): 10 nM antibody equilibrated with the non-biotinylated peptide at varied concentration; free antibody measured by its binding to captured AFP(243-261)-G0F-Bi; n=2 [continued), upper plot]. On the procedure: as §1, §2
Assay [3] has as its target B4. Put plainly: SPR affinity in solution (Biacore, CAP chip): 10 nM antibody equilibrated with the non-biotinylated, non-glycosylated peptide at varied concentration; free antibody measured by its binding to captured AFP(243-261)-G0F-Bi; n=2 [continued]. The protocol:
as §1, §2

In assay [4] the target is B3. Put plainly: SPR affinity in solution (Biacore, CAP chip): 10 nM antibody equilibrated with the non-biotinylated, non-glycosylated peptide at varied concentration; free antibody measured by its binding to captured AFP(243-261)-G0F-Bi; n=2 [continued), lower plot]. The protocol:
as §1, §2

Assay [5] addresses T1, AFP(243-261)[Ac-243; Asn(G2)251; Bi-PEG] (human, N-terminal acetylation; G2 (non-fucosylated biantennary N-glycan) on Asn corresponding to Asn-251; C-terminal E(biotinyl-PEG)-NH2).
T1 peptide: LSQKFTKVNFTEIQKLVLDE
Nature of the assay: SPR Biacore T200, 37 C; simulation for 7.3 µM-10 nM extrapolated from measured data; SPR simulation for 7.3 µM-10 nM, extrapolated lower bound.

Assay [6] deals with B1. Nature of the assay: SPR affinity in solution: 10 nM antibody with 120 nM-0.01 nM free peptide, free antibody read on AFP(243-261)-G0F-Bi CAP chip, n=2. On the procedure: as §1, §2
Assay [7] addresses B2. Put plainly: affinity in solution; ratio of KD against the KD for AFP(243-261)-G0F. On the procedure:
as §1, §2

In assay [8] the target is T2, AFP(243-261)[Acetyl-243; Asn(G0F)251; Bi-PEG] (human, N-terminal acetylation; G0F (fucosylated biantennary N-glycan) on Asn corresponding to Asn-251; C-terminal E(biotinyl-PEG)-NH2).
T2 construct: Synthetic glycopeptide
T2 peptide: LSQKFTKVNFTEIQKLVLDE
Nature of the assay: SPR; ratio of KD against the KD for AFP(243-261)-G0F-Bi (reference itself). On the procedure: as §1, §2

Assay [9] concerns the target T3, AFP(243-261)[Asn(Fuc-GlcNAc)Bi-PEG] (human, not fully specified; Fuc-GlcNAc disaccharide on Asn corresponding to Asn-251; C-terminal E(biotinyl-PEG)-NH2).
T3 peptide: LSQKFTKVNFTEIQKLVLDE
Put plainly: SPR Biacore T200, 37 C; molar ratio (binding stoichiometry). On the procedure: (§3) Detailed kinetic investigations were performed using a BIAcore™ T200 instrument from GE Healthcare at 37° C. The 5 rabbit mAb<AFP-L3>L9B12, 3C5, 3D2, 3A3 and 6B6, identified via the kinetic screening, were kinetically characterized for binding AFP-L3 peptides [0656] […] Asn(G0F)-Bi [0658]
(§4) The rabbit antibody capture system was immobilized on flow cells 1-4 as described with 700 to 800 RU. Flow cell 1 served as reference, flow cells 2, 3 and 4 were used for interaction measurements. 150 nM antibodies 1-5 were injected at 10 μL/min for 30 seconds. The Capture Levels (CL) in resonance units RU were monitored. Peptide analyte concentration series from 3.3-270 nM were injected at 60 μl/min. The association phase was monitored for 3 minutes, the dissociation phase was monitored for 10 minutes. The regeneration was performed by an injection of 10 mM Glycine pH 2.0 at 20 μL/min for 30 seconds, followed by 2 injections of 10 mM Glycine pH 2.25 for 60 seconds. The kinetic rate constants and the dissociation equilibrium constants KD were determined using a Langmuir 1:1 fitting model according to the BIAcore™ T200 Evaluation SW 3.2. Secondly, the Langmuir 1:1 fitting Scrubber-SW V2.0c was applied.

Assay [10] deals with T2, AFP(243-261)[Acetyl-243; Asn(G0F)251; …. Described as above. The protocol: as §3, §4
Assay [11] deals with T3, AFP(243-261)[Asn(Fuc-GlcNAc)Bi-PEG]. Nature of the assay: SPR; ratio of KD against the KD for AFP(243-261)-G0F-Bi.
The target of assay [12] is B2. Put plainly: SPR affinity in solution: 10 nM antibody with 200 µM-0.1 nM free peptide, free antibody read on AFP(243-261)-G0F-Bi CAP chip, n=2. The protocol:
as §1, §2

For assay [13], the target named is T1, AFP(243-261)[Ac-243; Asn(G2)251; Bi-PEG]. Nature of the assay: SPR; ratio of KD against the KD for AFP(243-261)-G0F-Bi; SPR; ratio of KD to the KD for G0F. The protocol: as §3, §4
Assay [14] deals with T3, AFP(243-261)[Asn(Fuc-GlcNAc)Bi-PEG]. Nature of the assay: SPR Biacore T200, 37 C, antibody captured on C1 chip, peptide as analyte, Langmuir 1:1. The protocol:
as §3, §4

Assay [15] has as its target T2, AFP(243-261)[Acetyl-243; Asn(G0F)251; …. The description is as above. The protocol:
as §3, §4

Assay [16] addresses T1, AFP(243-261)[Ac-243; Asn(G2)251; Bi-PEG]. Nature of the assay: SPR Biacore T200, 37 C, weak binding (cell shifted to the kd column); SPR, weak binding; KD only, no rate constants.
For assay [17], the target named is T2, AFP(243-261)[Acetyl-243; Asn(G0F)251; …. Put plainly: SPR Biacore T200, 37 C, antibody captured on C1 chip, peptide as analyte, Langmuir 1:1; apparent value (complex binding behavior). On the procedure: as §3, §4
By visual inspection, the kinetic signature for antibody 3C5 is close to the antibody saturation for the highest shown concentration 90 nM.

With B1, the “IC50 (read off the curve)” value was approximately 6 nM with mAb<AFP-L3>rRb-19B12-IgG [1] and approximately 5 nM with mAb<AFP-L3>rRb-3C5-IgG [2].
Regarding B2, the binding result with mAb<AFP-L3>rRb-3C5-IgG [3] and with mAb<AFP-L3>rRb-19B12-IgG [4] was “binds” throughout.
One may read the koff as the rate constant with which the complex falls apart. Usually kon stands for the second-order rate constant of association. Turning to B3, the Kd in [5] is more than 620 nM; in assay [6], 0.9 nM; in the assay with AFP(248-256)Ac-248]amid [12], 5700 nM; in assay [14] it was 18 nM; in assay [15], 2.5 nM. The “Delta KD” value is more than 5000 fold with AFP(248-256)Ac-248]amid [7], 1 fold in assay [8], more than 7 fold in assay [11] and more than 245 fold in assay [13]. Moreover, the MR is 1.3 in assay [9] and 1.4 in assay [10]. Further, the dissociation rate constant (koff) in assay [14] was 0.0047 s⁻¹; in assay [15], 0.0015 s⁻¹. The kon in assay [14] worked out at 270000 M⁻¹ s⁻¹; in assay [15], 600000 M⁻¹ s⁻¹. For the same molecule, the t/2 diss in [14] worked out at 2.5 min; in assay [15] it was 8 min.
For B4, the Kd in assay [6] worked out at 0.4 nM; in assay [16] it was 560 nM; in assay [17] it was 3.1 nM; with AFP(248-256)Ac-248]amid [12], 12600 nM; in [14], 35 nM. Also, the “Delta KD” value in the assay with AFP(248-256)Ac-248]amid [7] was more than 5000 fold; in [8], 1 fold; in [11] it was more than 11 fold; in assay [13] it was more than 180 fold. The MR in [9] came out at 1.5; in [10], 1.6. The values for the koff in [17] and in assay [14] were 0.0032 s⁻¹ and 0.016 s⁻¹, respectively. Moreover, the values for the kon in assay [17] and in assay [14] were 1e+06 M⁻¹ s⁻¹ and 450000 M⁻¹ s⁻¹, respectively. In [14], the t/2 diss is 0.7 min.
